Test results taken from patent publication EP4265717A1.

Experiments:
[1] = target: mobilized colistin resistance (MCR)-1 protein; experiment: indirect ELISA, plate coated with 0.2 ug/mL MCR-1 protein, purified antibody in doubling dilutions; details: scale: reciprocal dilution
[2] = target: mobilized colistin resistance (MCR)-2 protein; experiment: indirect ELISA, plate coated with 0.2 ug/mL MCR-2 protein, purified antibody in doubling dilutions; details: scale: reciprocal dilution

Binder | titer [1] | titer [2]
anti-MCR-1/MCR-2 protein mouse mAb 1IB10 (antibody, V domains shown) VH: VKLQQSGPELVKPGASVKMSCRASGYTFTSYVMHWVKQKPGQGLEWIGYFNPYNDGANYNEKFKGKATLSSDKSSGTAYMDLSSLTSEDSAVYYCARGPYGNYAMDYWGQGTSVTVSS VL: DVLMTQTPLSLPVSLGDQASISCRSSQNIVCSYGNPCLEWYLQKPGQSPKLLIYKVSNRFSGVPDRFSGSGSGTDFTLKISRVEAEDLGVYYCFQSSHVPWTFGGGTELEIKR | > 1.28e+06 | > 1.28e+06
anti-MCR-1/MCR-2 protein mouse mAb 2DG5 (antibody, V domains shown) VH: VKLQESGPGLVKPSQSLSLTCTVTGYSITSDYAWNWIRQFPGNKLEWMGQISDSAVTTYNPSLKSRISINRDTSKNQFFLQLNSVTPEDTATYYCARRNFYGYNFFDYWGRGTSLTVSS VL: DIQMTQTTSSLSASLGDRVTINCRASQDINNYLNWYQQKPDGTVKLLIYYTSRLHSGVPSRFSGSGSRTDYSLTISNLEREDIATYFCQQGKTIHPWTFGGGTKLDIKR | > 1.28e+06 | > 1.28e+06
